Test system: MS2 coat protein
Assay: apparent KD of MS2 coat protein; designed switch direction (-1 OFF switch, 1 ON switch): -1; higher = weaker reporter binding
How it was run: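 Stalled E. coli RNA polymerase transcribed designed RNA switches on Illumina chips, which were then titrated with SNAP-549-labelled MS2 coat protein, doubling from 0.7 or 1.5 nM to 3 µM. Steps lasted from 0.8–1.5 h at the lowest concentration to 10–20 min at the highest. The apparent KD is each design's median over clusters of curve-fitted normalised fluorescence.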

[1] = Eterna round: R95, input ligand: FMN 200 uM
[2] = Eterna round: R95, input ligand: microRNA oligo, concentration not stated
[3] = Eterna round: R95, input ligand: none
[4] = input ligand: microRNA oligo, concentration not stated

Sequence | apparent KD of MS2 coat protein [1] | apparent KD of MS2 coat protein [2] | apparent KD of MS2 coat protein [3] | apparent KD of MS2 coat protein (input ligand: FMN 200 uM) | apparent KD of MS2 coat protein [4] | apparent KD of MS2 coat protein (input ligand: none)
AGUACUAACGCGAAAGUGUUAGUACAAUAAGCUUGUGAAACAUGAGGAUCACCCAUGUCCUCAUAAGCUCGUCUUAU [salish99_TOv2_r3_023] (puzzle: Sensor v3, turn-off variant 2) | 19 nM | 549 nM | 16.1 nM | – | – | –
AGUACUAACUCGAAAGUGUUAGUACAAUAAGCUUGUGAAACAUGAGGAUCACCCAUGUCCUCAUAAGCUCGUCUUAU [salish99_TOv2_r3_022] (Eterna round: R96, puzzle: Sensor v3, turn-off variant 2) | – | – | – | 16 nM | 430 nM | 18 nM
AGUACUAACUCGAAAGUGUUAGUACAAUAAGCUUGUGAAACAUGAGGAUCACCCAUGUCCUCAUAAGCUCGUCUUAU [salish99_TOv2_r3_022] (puzzle: Sensor v3, turn-off variant 2) | 15.7 nM | 739 nM | 15.3 nM | – | – | –
AGUACUAUCACGAAAGUGAUAGUACAAAAAGCAAGUGAAACAUGAGGAUCACCCAUGUCCUCAUUUGCUCGUCUUAU [Identical to 94% Sensor v2, turnoff variant 2] (puzzle: Sensor v3, turn-off variant 2) | 16.8 nM | 476 nM | 12.7 nM | – | – | –
AGUACUAUCACGAAAGUGAUAGUACAAAAAGCAAGUGAAACAUGAGGAUCACCCAUGUCCUCAUUUGCUCGUCUUAU [JL turnoff v2 99] (Eterna round: R96, puzzle: Sensor v2, turn-off variant 2) | – | – | – | 12.2 nM | 375 nM | 14.4 nM
AGUACUAUCACGAAAGUGAUAGUACAAAGAGCAAGUGGAACAUGAGGAUCACCCAUGUCCUCAUAUGCUCGUCUUAU [salish99-s2-v2-x003] (Eterna round: R96, puzzle: Sensor v2, turn-off variant 2) | – | – | – | 14.6 nM | 322 nM | 16.1 nM
AGUACUAUCACGAAAGUGAUAGUACAAUAAACAAGUGAAACAUGAGGAUCACCCAUGUCCUCAUUUGCUCGUCUUAU [Sensor 3 - 1] (puzzle: Sensor v3, turn-off variant 2) | 146 nM | 389 nM | 183 nM | – | – | –
AGUACUAUCACGAAAGUGAUAGUACAAUAAGCUAGUGAAACAUGAGGAUCACCCAUGUCCUCAUUAGCUCGUCUUAU [JL turnoff v2 78] (Eterna round: R96, puzzle: Sensor v2, turn-off variant 2) | – | – | – | 14 nM | 258 nM | 16.4 nM
AGUACUAUCACGAAAGUGAUAGUACAAUAAGCUUGUGAAACAUGAGGAUCACCCAUGUCCUCAUAAGCUCGUCUUAU [JL turnoff v2 77] (Eterna round: R96, puzzle: Sensor v2, turn-off variant 2) | – | – | – | 16.1 nM | 463 nM | 18.7 nM
AGUACUAUCACGAAAGUGAUAGUACAAUGAGCUUUUGAAACAUGAGGAUCACCCAUGUCCUCAUAAGCUCGUCUUAU [JL turnoff v2 52] (Eterna round: R96, puzzle: Sensor v2, turn-off variant 2) | – | – | – | 17.4 nM | 123 nM | 18.9 nM
AGUACUAUCACGAAAGUGAUAGUACAAUUGAGCUUUUGAACAUGAGGAUCACCCAUGUCCUCAUAAGCUCGUCUUAA [Mat - Sensor v2 - var 2 - Mod - D171] (Eterna round: R96, puzzle: Sensor v2, turn-off variant 2) | – | – | – | 28.7 nM | 496 nM | 30.5 nM
AGUACUGACACGUCGGUGUUAGUACAAUAAGCUUGUGAAACAUGAGGAUCACCCAUGUCCUCAUAAGCUCGUCUUAU [salish99_TOv2_r3_081] (Eterna round: R96, puzzle: Sensor v3, turn-off variant 2) | – | – | – | 15.1 nM | 481 nM | 17.2 nM
AGUACUGACACGUCGGUGUUAGUACAAUAAGCUUGUGAAACAUGAGGAUCACCCAUGUCCUCAUAAGCUCGUCUUAU [salish99_TOv2_r3_081] (puzzle: Sensor v3, turn-off variant 2) | 17 nM | 659 nM | 15 nM | – | – | –
AGUACUGACACGUUGGUGUUAGUACAAUAAGCUUGUGAUACAUGAGGAUCACCCAUGUCCUCAUAAGCUCGUCUUAU [salish99_TOv2_r2_093] (puzzle: Sensor v3, turn-off variant 2) | 26.1 nM | 881 nM | 21.1 nM | – | – | –
AGUACUGACACGUUGGUGUUAGUACAAUAAGCUUGUGUUACAUGAGGAUCACCCAUGUCCUCAUAAGCUCGUCUUAU [salish99_TOv2_r2_095] (puzzle: Sensor v3, turn-off variant 2) | 117 nM | 38.4 nM | 138 nM | – | – | –
AGUACUUACACGAAAGUGUUAGUACAAUAAGCUUGUGAAACAUGAGGAUCACCCAUGUCCUCAUAAGCUCGUCUUAU [salish99_TOv2_r3_016] (puzzle: Sensor v3, turn-off variant 2) | 18.6 nM | 615 nM | 17.1 nM | – | – | –
AGUAGAUCUACGCUUGCGUGGAUCUGCAAUGCAAGUGUAACAUGAGGAUCACCCAUGUCCUCAUUUGCUCGUCUUAU [JL turnoff v2 99.03] (puzzle: Sensor v3, turn-off variant 2) | 46.8 nM | 275 nM | 48.8 nM | – | – | –
AGUAGAUCUACGCUUGCGUGGAUCUGCAAUGCAGGUGUUACAUGAGGAUCACCCAUGUCCUCAUUUGCUCGUCUUAG [JL turnoff v2 99.06] (puzzle: Sensor v3, turn-off variant 2) | 97.4 nM | 663 nM | 91.9 nM | – | – | –
AGUAGAUCUACGCUUGCGUGGAUCUGCAAUGCAGGUGUUACAUGAGGAUCACCCAUGUCCUCGUUUGCUCGUCUUAU [JL turnoff v2 99.12] (puzzle: Sensor v3, turn-off variant 2) | 209 nM | 664 nM | 222 nM | – | – | –
AGUAGAUCUACGCUUGCGUGGAUCUGCUAUGCAGGUGUUACAUGAGGAUCACCCAUGUCCUCGUUUGCUCGUCUUAU [JL turnoff v2 99.13] (puzzle: Sensor v3, turn-off variant 2) | 333 nM | 693 nM | 448 nM | – | – | –
AGUAGGAGAGGAUAUACAUGAAGUCGAAAGACUUCAACUCAACAUGAGGAUCACCCAUGUAGAAGGCUCCUACA [Omei Ex2 BD A6] (Eterna round: R97, puzzle: Exclusion 2) | – | – | – | 132 nM | – | 25.8 nM
AGUAGGUCUACCUUGGUGGAUCUGCAUUAUUCAAGUGUUACAUGAGGAUCACCCAUGUCCUCAUUUGCUCGUCUUAU [JL turnoff v2 99.25] (puzzle: Sensor v3, turn-off variant 2) | 385 nM | 45.7 nM | 417 nM | – | – | –
AGUAGUAGUAUCCGAUCCGACAUGAGGAUCACCCAUGUAGCUAGACGUGCACGCGAUGCUCGUCAGACUACCAGAUG [salish99_TOv1_r3_037] (puzzle: Sensor v3, turn-off variant 1) | 102 nM | 100 nM | 74.1 nM | – | – | –
AGUAGUAGUAUCCGAUCCUACAUGAGGAUCACCCAUGUAGCUGGACGUGCACGCGAUGCUCGUCAGACUACCAGAUG [salish99_TOv1_r3_044] (puzzle: Sensor v3, turn-off variant 1) | 181 nM | 131 nM | 150 nM | – | – | –
AGUAGUAGUUUCCGUUCUUACAUGAGGAUCACCCAUGUUUCUUGACGUGCACGCGAUGCUCGUCAGACUACCAGAUG [salish99_TOv1_r3_056] (puzzle: Sensor v3, turn-off variant 1) | 39.3 nM | 51.3 nM | 56.9 nM | – | – | –
AGUAUGCGGCAGGAUAUCCAUCCGCGGUAAGGUGGAGAAGGGCUGACAUGAGGAUCACCCAUGUGCGUCCUGUA [salish99_ex6_r4_028] (Eterna round: R97, puzzle: Exclusion 6) | – | – | – | 31.9 nM | – | 19.9 nM
AGUAUGUGAGGAUAUUUUUCGUCCGGUAGGAUACUACAGAGAAAGAAGGCACAUGAGGAUCACCCAUGUGAGAC [Eternabot (L1) Solution 55] (Eterna round: R97, puzzle: Exclusion 4) | – | – | – | 48.3 nM | – | 20.1 nM
AGUCCAGACGGACCCUCUAACAUGAGGAUCACCCAUGUAGCGGAGGAUAUCCGAAUUUGGGCGACGGAGAAGGCCGUUGCAGGG [Edsosobi] (Eterna round: R96, puzzle: Exclusion NG 3) | – | – | – | 21.3 nM | 27 nM | 27.5 nM
AGUCCUAGUCAAGGAUAUACACCGAAGAAAUACGUAGAAGGUGACAUGAGGAUCACCCAUGUAGGGCCUCUGGAAACAGAGGAA [Indiinbi] (Eterna round: R96, puzzle: Exclusion NG 1) | – | – | – | 208 nM | 107 nM | 143 nM
AGUCCUGGAGUUAGGAUAUGGUGUAUCGCUGCGCUUCAGAAGGGACUUGAGGAUCACCCAAGUAGCCGUGAGGG [salish99_bmod_ex4_r4_007] (Eterna round: R97, puzzle: Brourd's mod of Exclusion 4) | – | – | – | 49.9 nM | – | 60.2 nM

From the supplement of paper PMC9170038
